Measured values as given in the nanobody polyreactivity screen of Harvey et al. (2022).

Test: yeast display, Sf9 membrane polyspecificity reagent, FACS + sequencing; frameworks hold sequencing errors
Summary of the method: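 Nanobodies came from a synthetic yeast display library in Saccharomyces cerevisiae BJ5465, induced with galactose for 36–48 hours and stained for 1 hour at 4 °C with 10% biotinylated, detergent-solubilized Sf9 membrane reagent. Cells were enriched on streptavidin microbeads and then FACS-sorted, with low and high (top ~1%) gates set on anti-HA fluorescence for expression and streptavidin fluorescence for reagent binding. Each polyreactivity label reflects the gate a clone came from. Genes were amplified by colony PCR, sequenced by MiSeq 2 × 250 and filtered by CDR length.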

| Sequence | polyreactivity (PSR sort gate) |
| --- | --- |
| QVQLVESGGGLVQAGGRLRLSCAASGSIFNSYAMGWYRQAPGTEREFVASIPKSGGTTYYADSVKGRFTISRDNAKNTVYLQMNSLKPEDTAVYYCAADWYRSSWTYNYWGQGTQVTLSS | low polyreactivity |
| QVQLVESGGGFVQAGGSLRLSCAASGFIFNRNAMGWYRQAPGKERELVAAISRSGGRTYYADSVKGRFTISRDTAKNTDYFQMNSLKPEDTAVYSCATEGYDGEFDYWGQGTQVTVSS | high polyreactivity |
| QVQLVESGGGLVQAGGSLRLTCAASGSIFWYNAMGWYRQAPGKERELVAAIKWSGGSTFYADSVKGGFTISRDTAKNNVYLQMNSLKPEDTAVYYCNAPPLYRDEFWGQGTQVTVSS | high polyreactivity |
| QVQLVESGGGLVQAGGSLRLSCAASGIIFAANAMAWYRQAPGKERELVAAISKNGGITYYADSVKGRFTISRDNAKNTVYLQMNSLIPEDTAVYDCSARWRQTRRYYYWGQGTKVTVSS | high polyreactivity |
| QVQLEESGVGVVLAGGSRSLSCAASGRIFQYNAMGWNRQAPGKERELVAAISYRGGSTYYADSVKGRFTISRDNAKYTVYLQLNSLKPEDTAVYYCAVEYPVYYYVEYDYWGQGTQVTVSS | high polyreactivity |
| QVQLLESGGGLVQAGGSLRLSCAASGFIFYHYAMGWYIQAPGKERELVAANSRSGTSTYYADSVKGRFTISRDNAKNTVYLQMNSLKPEDTAVYYCNAVYTRYVYYYYEYDYWGQGTQVTVSS | high polyreactivity |
| QVQLVESGGGLVQAGGSLRLSCAASGSTFHVNAMGWYRQAPGKEREFGAVISSSAGRTYYADSVKGRFTISRDNAKNTVYLQMNSLKPEDTAVYYCAAGTFKPYWRKFEYWGQGTQVTVSS | high polyreactivity |
| QVQLVESGGGLVQAGGSLRLSCAASGRTFRLYAMGWYIQAPGKERELVAAISSTGSTYYADSVKGRFTISLDNAKNTVYLQMNSLKPEDTAVYYCNAKLPVTSLKFDYYYWGQGSQVTVSS | high polyreactivity |
| QVQLVESGGGLVQAGGSLRLSCAGSGRTFSTYAMGSDRQAPGKERELVAAITRRGGSTYYADSVKGRFTISRDNAKNTVYLQMNSLKPEDTAVYYCARENPGDSYYDYWGQGTQVTVSS | low polyreactivity |
| QVQLVESGGGLVQAGGSLRLSCAASGRTLQTYVMGWYRQPPGKERELVAAITRGGGSTYYADSVKGRFTISRDNAKNTVYLQMNSLKPEDTAVYYCAASALRFNSRFSHWYNYWGQGTQVTVSS | high polyreactivity |
| QVQLVESGGGLVQAGGSLRLSCAASGSTYVSNAMGWYRQAPGKERELVAAISKSGGSTYYGDSVKGRFSISRDTAKNTVYLQMNSLKPEDTAVYYCAASPARYWYGGKEYDYWGQGTQVTVSS | high polyreactivity |
| QVQLVESGGGLVQAGGSLRLSCAASGFTFAGYAMGWYRQAPGKERELVAGIRSSGARTYYADTVKGRFTISRDNAKNTVYFQLKSLKPDDTAVYYCAKTDGFYGGYGYWGQGTQVTVSS | low polyreactivity |
| QVQLVESGAGLVQAGGRLRLSCAASGRIFDGYAMGWYRQAPGKERELVAAITASGGSTYYADSVKGRFTISRDNAKITVYLQMNSLKPEDTAVYYCAVDYSYWVEYWGQGTQVTVSS | high polyreactivity |
| QVQLVESGGGLVQAGGSLRLSCAASGRTFGGYAMGWYRQAPGKERELVAAIRSRGGRTYYADSVKGRFTISRDNAKNTVYLQMNSLKPEDTAVYYCATYGNKWGEDYWGQGTQVTVSS | high polyreactivity |
| QVQLVESGGGLVQAGGSLRLSCAASGFTFGRYAMGWYRQAPGKEREFVAGITWSGGSTSYADSVKGRFTISRDNAKNTVYLQMNSLKREDTAVYYSATRARYTRVHGRRYAYDYWGQGTQVTVSS | high polyreactivity |
| QVQLVESGGGLVQAGGSLRLSCAASGRTFRKYAMGWYRQAPGKERELVAAITTSGARTYYADSVKGRFTISRDNAKNTVYLQMNSLKPEDTAVYYCNAVIPYYGIEFDYWGQGTQVTVSS | high polyreactivity |
| QVQLVESGGGLVQAGGSLRLSCAASGRILWTYAMGWYRQAPGKERELVADISRTGSTNYADSVKGRFTISRDNAKNTVYLQMNSLKPEDTAVYYCNADYDRSRVYYSVELYDYWGQGTQVTVSS | low polyreactivity |
| QVQLVESGGGLVQAGGSLRLSCAASGRIFPANAMGWYRQAPGKERELVAAIDYDGGSTYYADSVKGRFTISRDNAKNTVYLQMNSLKPEDTAVYYCAADFYDYEGSYYDYYWGQGTQVTVSS | high polyreactivity |
| QVQLVESGGGLVQAGGSLRLSCAASGLIVGGYTMGWYRQAPGKERELVAAIDSGGSTKYADSVKGRFTISRDNAKNTVYLQMNSLKPEDTAVYYCAARDYYAWRYRYHHEVSEFDYWGQGTQVTVSS | low polyreactivity |
| QVQLVESGGGLVQAGGSLRLSCAASGLTFYSNAMRWYRQAPGKEREVVARISTGGSTYADSVKGRFTISRDNAKKTVYLQMNSLKPQDTEVYYCAKLPPRGIDDEYWGQGTQVTVSS | low polyreactivity |
| QVQLVESGGGLVQAGGSLRISCAASGRTFYANAMGWYRQAPGKERELVAAISSNGGSTYYADSVKGRFTISRDNAKNTVYLQMNSLKPEDTAVYYCAVVSRYIAWRKYDYCGQGTQVTVSS | high polyreactivity |
| QVQLVESGGGLVQAGGSLRLSFAASGSIFFGNAKGCYRQAPVKERELVAAITRRGGSTYYADSVKGRFTISRDNAKNPVYLQMYSLKAEDTAVYYCNGVSKRYGYGYWGQGTQVTVSS | high polyreactivity |

| Sequence | polyreactivity (PSR sort gate) |
| --- | --- |
| QVQLVESGGGLVQAGGSLRLSCAASGSTFLTYAMGWYRQAPGKERELVASITSTGRTYADSVKGRFTISRDNAKNTVYLQMNSLKPEDTAVYYCNADVTAFRRSFLRKYYSYDSWGQGTQVTVSS | low polyreactivity |
| QVQLVESGGGLVQAGGSLRLSCAASGSTFQVYAMGWYRQAPGKERELVAAISNGGRTNYADSVKGRFTISRDNAKNTVYLLMNSLKPEDTAVYYCNADQVWWSFDRVLVGYEYWGQGTQVTVSS | low polyreactivity |
| QVQLVESGGGLVQAGGSLRLSCAASGRTFYTYAMGWYRQAPGKERELVAAISSGGSTYYADSVKGRFTISRDNAKNTVYLQMNSLKPEDTAVYYCAARYSKRVWYGYWGQGTQVTVSS | high polyreactivity |
| QVQLVESGGGLVQAGGSLRLSCAASGNIFTTYAMGWYRQAPGKERELVAAISRTGGRTSYADSVKGRFTISRDNAKNTVYLEMNSLKPVDTAVYYCADTLWRQSNLEYWGQGTQVTVSS | high polyreactivity |
| QVQLVESGVGLVQAGGSLRLSCAASGSIINFYAMGLYRQAPGKERELVAAINYNDINTYYADSVKGRFTISRDNAKNTVYLQMNSLKPEDTAVYYCNAELNVQYLYGYTGEYDYWGQGTQVTVSS | low polyreactivity |
| QVQLVESGGGLVQAGGSLRLSCAASGRIFYPYAMGWYRQAPGTERELVATITRTGSTYYADSVKGRFTISRDNAKNTVYLQMNSLKPEDTAVYDCAVQRSYVGPRQYNYWGQGTQVTVSS | high polyreactivity |
| QVQLVESGGGLVQAGGSLRLICAASGRTFNSNVMGRSRQAPGKERELVAAISGSSGSTRYADSVKGRFTISRDNAKNTVYLQMNSLKPEDTEVYYCAAYPLYRRRWTGDYWGQGTQVTVSS | high polyreactivity |
| QVQLVESGGGLVQAGGSLRLSCAASGGTFGYNAMGWYRQAPWKERELVAAISSGGRTYYADSVKGRFTISRDNAKNTVYLQMNSLKPEDTAVYYCNARKGLYYGGRYDYWGQGTQVTVSS | high polyreactivity |
| QVQLGESGGGLVQAGGSLRLSCAASGFTFDVNAMGWYRQATGKERELFAGITTSDGSTYYADSVKGRFTISRDNAKNTVYLQMNSLQPEDTAVYYCAAAITWYQLYQRSGGDYWGQGTQVTVSS | low polyreactivity |
| QVQLVESGGGLVQAGGSLRLSCAASGSTFILYAMGCYIQAPGKERELVAAITASGGSTYADSVKGRFTISRDNSKNTVYLQMNSLKPEDSAVYYCAARRWSSKYRKYDYWGQGTQVTVSS | high polyreactivity |
| QVQLVESGGGLVQAGGSLRLSCAASGFIFYSYAMGWYRQAPGKEREFVAAISRGGGRTYYADSVKGRFTISRDNAKNTVYLHMYSLKQEDTAVFYCATLPNGPHWPEYDYWGQGTQVTVSS | high polyreactivity |
| QVQLVESGGGLVQAGGSLRLSCAASGSTFTYYAMGWYRQAPGKERELVAAITSSGSTNYADSVKGRFTISRDNAKNTVYLQMNSLKPEDTAVYYCNAVSKWAIYDYWGQGTQVTVSS | high polyreactivity |
| QDQLVESGGALVQAGGSLRLSCAASGFTFYKNAMGWYRQAPGKERELVAAISADGGRTYYADSVKGRFTISRDNAKNTVYLQMNSLKPEDTAVYYCAADKRLFRRPKTYDLWGQGTQVTVSS | high polyreactivity |
| QVQLVESGGRLVQAGGSLRLSCAASGGTFVVYAMGWYSQARGKARELGAAITWIGDSTYYADSVKGRFTISRDNAKNTVYLQMNSLKPEDTAVYYCNAEGGYYLTEYGYWGQGTQETVSS | low polyreactivity |
| QVQLVESGGGLVQAGGSLRLSCAASGFIFYQYAMGWYRQAPGKERELVAAISTRGGSTYYADSVKGRFTISRDNAKNTVYLQMNSLKPEDTAVYYCAATVNARRVTRRYYWGQGTQVTVSS | high polyreactivity |
| QVQLVESGGALVQAGGSLRLSCAASGIIFNLYAKGWYRPAPGKEMELVAAITSSGTSTYYADSVKGRFTISRDNAKNTVYLQMNSLSPEDTAVYYCAAERGFYYFVEYDYWGQGTQVTVSS | high polyreactivity |
| QVQLVESGGGLVQAGGILSLSCADSGRIFDIYAMGWYRQAPGKERELVASISWSGDSTYYADSVKGRFTISRDNAKNTVYLQMNSLKPEDTAVYYCDAVGEDTEGYDFDYWGQGTQVTVSS | low polyreactivity |
| QVQLVESGGGLVQAGGSLRLSCAASGVYAMGWYRQAPGQERELVAAITSVGSTNYADSVKGRFTISRDNAKNTVYLQMNSLKPEDTAVYYCNTDRDTDELDYWGQGTQVTVSS | low polyreactivity |
| QVQLVESGGGLVQAGGSLRLSCAASGSIFGYYAMGWYRQAPGKERELVASITRSGGSTYYADSVKGRFTISRDNAKNTVYLQMNSLQPEDTAVYYCAVARYRHGRSGTYDVTGEYWGQGTQVTVSS | high polyreactivity |
| QVQLVESGGGLVQAGGSLRLSCAASGFSFTRYAMGWYRQAPGKERELVAAIYIGGSTYYADSVKGRFTISRDNAKNTVYFQMNSQKPEDTAVYYCAVDYRHSSSWNAGPWEMYYWGQGTKVTVSS | low polyreactivity |
| QVQLVESGGCLVQAGGSLRLSCAASGRTFFGYAMGWYRQAPGKERELVAALTRGGSTNYADSVKGRFTFSRDNAKNTVYLQMNSLKPEDTAVYYCNAERYRSRRYPYRYLYYYWGQGTQVTVSS | high polyreactivity |
